According to paper PMC10447535:

What was measured:
[1] = immunofluorescence, cell surface level, MKN28; conditions: glycan lost; control: KIAA1324 WT
[2] = cycloheximide chase immunoblot, MKN28; conditions: glycan lost; control: KIAA1324 WT

B1: KIAA1324 (ELAPOR1, inceptor): 3NQ (protein)
parent chain: MAEPGHSHHLSARVRGRTERRIPRLWRLLLWAGTAFQVTQGTGPELHACKESEYHYEYTACDSTGSRWRVAVPHTPGLCTSLPDPIKGTECSFSCNAGEFLDMKDQSCKPCAEGRYSLGTGIRFDEWDELPHGFASLSANMELDDSAAESTGNCTSSKWVPRGDYIASNTDECTATLMYAVNLKQSGTVNFEYYYPDSSIIFEFFVQNDQCQPNADDSRWMKTTEKGWEFHSVELNRGNNVLYWRTTAFSVWTKVPKPVLVRNIAITGVAYTSECFPCKPGTYADKQGSSFCKLCPANSYSNKGETSCHQCDPDKYSEKGSSSCNVRPACTDKDYFYTHTACDANGETQLMYKWAKPKICSEDLEGAVKLPASGVKTHCPPCNPGFFKTNNSTCQPCPYGSYSNGSDCTRCPAGTEPAVGFEYKWWNTLPTNMETTVLSGINFEYKGMTGWEVAGDHIYTAAGASDNDFMILTLVVPGFRPPQSVMADTENKEVARITFVFETLCSVNCELYFMVGVNSRTNTPVETWKGSKGKQSYTYIIEENTTTSFTWAFQRTTFHEASRKYTNDVAKIYSINVTNVMNGVASYCRPCALEASDVGSSCTSCPAGYYIDRDSGTCHSCPTNTILKAHQPYGVQACVPCGPGTKNNKIHSLCYNDCTFSRNTPTRTFNYNFSALANTVTLAGGPSFTSKGLKYFHHFTLSLCGNQGRKMSVCTDNVTDLRIPEGESGFSKSITAYVCQAVIIPPEVTGYKAGVSSQPVSLADRLIGVTTDMTLDGITSPAELFHLESLGIPDVIFFYRSNDVTQSCSSGRSTTIRVRCSPQKTVPGSLLLPGTCSDGTCDGCNFHFLWESAAACPLCSVADYHAIVSSCVAGIQKTTYVWREPKLCSGGISLPEQRVTICKTIDFWLKVGISAGTCTAILLTVLTCYFWKKNQKLEYKYSKLVMNATLKDCDLPAADSCAIMEGEDVEDDLIFTSKKSLFGKIKSFTSKRTPDGFDSVPLKTSSGGLDMDL
- localisation_or_trafficking [1]: decreases
- degradation_or_half_life, other: protein level remaining at 2 h [2]: decreases
